Source: US20030203464

Biological target: Rac1 (UniProt P63000)

66 kD Tiam-1
GEF activity (32P-GTP bound to the GTPase, filter assay), with ascorbyl stearate: Other truncations of Tiam-1, all containing the DH and PH domains (FIG. 3), also exhibited AS stimulated GEF activity on Rac 1

85 kD Tiam-1
GEF activity (32P-GTP bound to the GTPase, filter assay), with ascorbyl stearate: ascorbyl stearate (AS) stimulated the rate of Tiam-1-mediated nucleotide exchange on Rac 1 | GEF activity (32P-GTP bound to the GTPase, filter assay), without lipid: this truncation alone, at various concentrations, exhibited no GEF activity towards Rac 1

106 kD Tiam-1
GEF activity (32P-GTP bound to the GTPase, filter assay), with ascorbyl stearate: Other truncations of Tiam-1, all containing the DH and PH domains (FIG. 3), also exhibited AS stimulated GEF activity on Rac 1

135 kD Tiam-1
GEF activity (32P-GTP bound to the GTPase, filter assay), with and without ascorbyl stearate: shows weak GEF activity towards Rac in the absence of AS, but is still greatly stimulated by AS
